Test results: paper PMC5760668, “Structure function and engineering of multifunctional non-heme iron dependent oxygenases in fungal meroterpenoid biosynthesis” (Nature Communications, 2018)

T1: AusE-(6P-A298) (Aspergillus nidulans, UniProt Q5AR34)
T1 construct: crystal construct, N-terminal truncated 6P-A298 in pET28a, E. coli, EDTA-treated, Mn(II) reconstituted; homodimer
T1 sequence (Q5AR34 6-298): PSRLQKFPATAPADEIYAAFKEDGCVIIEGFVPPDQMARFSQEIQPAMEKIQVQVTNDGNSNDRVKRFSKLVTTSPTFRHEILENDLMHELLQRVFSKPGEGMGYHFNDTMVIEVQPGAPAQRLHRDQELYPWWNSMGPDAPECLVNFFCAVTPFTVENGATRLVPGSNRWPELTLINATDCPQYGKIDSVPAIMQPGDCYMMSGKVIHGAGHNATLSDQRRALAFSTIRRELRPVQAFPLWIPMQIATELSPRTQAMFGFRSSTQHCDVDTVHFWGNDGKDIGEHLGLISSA

T2: PrhA-(6P-A298), N-terminal truncated and C-terminal chimeric PrhA (Penicillium brasilianum, UniProt A0A1E1FFL0, E295I/A296S/P297S/S298A)
T2 construct: crystal construct PrhA-(6P-A298): residues from Pro6, C-terminal Glu295-Val301 replaced by AusE Ile295-Ser296-Ser297-Ala298, in pET28a, EDTA-treated; homodimer; Asp276′ of the other chain contacts substrate
T2 sequence (A0A1E1FFL0 6-298 E295I/A296S/P297S/S298A): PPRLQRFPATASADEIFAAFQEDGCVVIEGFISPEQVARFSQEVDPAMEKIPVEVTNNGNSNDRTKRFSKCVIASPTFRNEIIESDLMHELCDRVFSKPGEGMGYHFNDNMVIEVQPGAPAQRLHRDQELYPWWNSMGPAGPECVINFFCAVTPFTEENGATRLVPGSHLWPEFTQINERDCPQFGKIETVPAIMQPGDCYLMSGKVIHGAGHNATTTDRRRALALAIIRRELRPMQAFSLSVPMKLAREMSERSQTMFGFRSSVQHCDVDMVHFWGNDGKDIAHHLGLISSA

B1: wild-type PrhA (PrhA-(M1-V301)) (enzyme, Penicillium brasilianum, UniProt A0A1E1FFL0 1-301, looked up)
chain: MAPMIPPRLQRFPATASADEIFAAFQEDGCVVIEGFISPEQVARFSQEVDPAMEKIPVEVTNNGNSNDRTKRFSKCVIASPTFRNEIIESDLMHELCDRVFSKPGEGMGYHFNDNMVIEVQPGAPAQRLHRDQELYPWWNSMGPAGPECVINFFCAVTPFTEENGATRLVPGSHLWPEFTQINERDCPQFGKIETVPAIMQPGDCYLMSGKVIHGAGHNATTTDRRRALALAIIRRELRPMQAFSLSVPMKLAREMSERSQTMFGFRSSVQHCDVDMVHFWGNDGKDIAHHLGLEAPSVHV
notes: PrhA, Fe(II)/αKG-dependent oxygenase, Penicillium brasilianum; It may have been the chimeric 6-298 crystallisation construct; also called recombinant PrhA; source: E. coli Rosetta 2(DE3)pLysS, purified (HisTrap HP, HiTrap Q HP, Superdex 200)
B2: N-terminal truncated and C-terminal chimeric PrhA-(6P-A298) (enzyme)
chain: T2 sequence (A0A1E1FFL0 6-298 E295I/A296S/P297S/S298A)
notes: PrhA, Fe(II)/αKG-dependent oxygenase of paraherquonin biosynthesis, Penicillium brasilianum; from P6 up to the residue before Glu295 (Glu295-Val301 were replaced); AusE, Aspergillus nidulans, residues Ile295-Ser296-Ser297-Ala298, put in place of PrhA Glu295-Val301; Crystallised as apo form; Fe(II), αKG and preaustinoid A1 (5) were soaked in; also called PrhA-Fe; PrhA-Fe/αKG; source: E. coli …
B3: wild-type AusE (AusE-(M1-A298)) (enzyme, Aspergillus nidulans, UniProt Q5AR34 1-298, looked up)
chain: MGSATPSRLQKFPATAPADEIYAAFKEDGCVIIEGFVPPDQMARFSQEIQPAMEKIQVQVTNDGNSNDRVKRFSKLVTTSPTFRHEILENDLMHELLQRVFSKPGEGMGYHFNDTMVIEVQPGAPAQRLHRDQELYPWWNSMGPDAPECLVNFFCAVTPFTVENGATRLVPGSNRWPELTLINATDCPQYGKIDSVPAIMQPGDCYMMSGKVIHGAGHNATLSDQRRALAFSTIRRELRPVQAFPLWIPMQIATELSPRTQAMFGFRSSTQHCDVDTVHFWGNDGKDIGEHLGLISSA
notes: AusE, Fe(II)/αKG-dependent oxygenase, Aspergillus nidulans; It may have been the 6-298 crystallisation construct; also called recombinant AusE; source: E. coli Rosetta 2(DE3)pLysS, purified (HisTrap HP, HiTrap Q HP, Superdex 200)
B4: N-terminal truncated AusE-(6P-A298) (enzyme, Aspergillus nidulans, UniProt Q5AR34 6-298, looked up)
chain: T1 sequence (Q5AR34 6-298)
notes: AusE, Fe(II)/αKG-dependent oxygenase of austinol biosynthesis, Aspergillus nidulans; residues P6-A298, cloned NdeI/BamHI into pET28a; Crystallised with Mn(II), and with Mn(II) and αKG; also called AusE-Mn; AusE-Mn/αKG; source: E. coli Rosetta 2(DE3)pLysS, purified (HisTrap HP, HiTrap Q HP, EDTA treatment, Superdex 200)

Key:
AusE-(6P-A298) = molecular target: T1, AusE-(6P-A298); test: X-ray crystal structure; format: binding; conditions: Mn(II), anaerobic; co-substrate
[1] = molecular target: T2, PrhA-(6P-A298), N-terminal truncated and C-terminal chimeric PrhA; test: X-ray crystal structure; format: binding; conditions: Fe(II); crystal soaked with αKG; co-substrate, bidentate chelation
[2] = molecular target: the molecule itself; test: dynamic light scattering; purified enzymes; monomodal distribution, polydispersity 18.2 and 21.1%; predicted masses compared with the calculated 35.1 kDa
[3] = molecular target: the molecule itself; test: crystal structure; anaerobic vapor diffusion at 20 °C; AusE with MnCl2 (and αKG); PrhA and mutants crystallised as apo form and soaked with FeSO4, αKG and substrate; homodimer in the crystal

Molecule | stoichiometry N [2] | stoichiometry N [3] | further results
O=C(O)CCC(=O)C(=O)O [α-ketoglutarate] |  |  | X-ray crystal structure (AusE-(6P-A298)): X-ray crystal structures of AusE complexed with Mn(II) and αKG (AusE-Mn/αKG); X-ray crystal structure [1]: in complex with Fe(II) and αKG (PrhA-Fe/αKG)
B1 | 2 |  | 
B2 |  | 2 | 
B3 | 2 |  | 
B4 |  | 2 | 
